Earlier results in US7759315B2, “Treatment of inflammatory conditions of the intestine” (CSL Behring AG, priority 2005, dated 2010).
Non-standard residues stand in square brackets, D forms with d. No end group written: not given here. Nal = naphthylalanine (source code Z); Aib = CC(C)(N)C(=O)O

Columns and labels:
LCAT = target: T1, LCAT (Homo sapiens, UniProt P04180)
T1 sequence (P04180 25-440): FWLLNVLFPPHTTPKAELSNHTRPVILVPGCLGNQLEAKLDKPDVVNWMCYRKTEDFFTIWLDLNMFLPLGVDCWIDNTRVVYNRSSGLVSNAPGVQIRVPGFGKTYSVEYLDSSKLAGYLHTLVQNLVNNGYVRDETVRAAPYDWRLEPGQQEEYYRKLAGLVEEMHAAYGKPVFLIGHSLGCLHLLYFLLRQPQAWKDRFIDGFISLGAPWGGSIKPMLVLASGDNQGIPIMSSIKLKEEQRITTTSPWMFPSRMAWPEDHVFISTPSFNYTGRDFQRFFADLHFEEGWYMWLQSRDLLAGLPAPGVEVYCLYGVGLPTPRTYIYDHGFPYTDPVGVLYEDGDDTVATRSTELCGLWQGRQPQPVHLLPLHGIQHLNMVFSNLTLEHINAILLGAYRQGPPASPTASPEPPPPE

[1] = percent helicity; for He (%) free: free peptide; for He (%): micelles

Substance | ACTIVITY (%) LCAT (LCAT) | He (%) free [1] | He (%) [1] | He (%) SUVs ([1]; SUVs)
PVLDWFRELLNELLEALKQKLK [Peptide 35] | 31% | 49 (sp) % | 59% | –
PVLDLFLELLNEXLEALKQKLK (PVLDLFLELLNE[Aib]LEALKQKLK; not fully specified (C-terminus)) [Peptide 31] | 34% | – | 98% | –
PVLDLFRELLNEWLEALKQKLK [Peptide 54] | 19% | – | 71% | –
PVLDLFRELLEELQKKLK [Peptide 220] | 22% | – | 64% | –
PVLDLWRELLNEXLEALKQKLK (PVLDLWRELLNE[Aib]LEALKQKLK; not fully specified (C-terminus)) [Peptide 41] | 25% | – | 73% | –
PVWDEFREKLNEXLEALKQKLK (PVWDEFREKLNE[Aib]LEALKQKLK; not fully specified (C-terminus)) [Peptide 52] | 20% | – | sp | –
PVLDLFRELLEEWKQKLK* (not fully specified (N-terminus, C-terminus); printed as PVLDLFRELLEEWKQKLK*) [Peptide 215] | 38% | – | 63% | –
EWLKAFYEKVLEKLKELF [Peptide 248, [Glu^1.8; Leu^5,11,17]; 18A peptide (Epand et al., 1987), reference compound] | 3% | – | 45% | –
PVLDEFRELLYEXLEALKQKLK (PVLDEFRELLYE[Aib]LEALKQKLK; not fully specified (C-terminus)) [Peptide 70] | 12% | – | 78% | –
~VLDLFRELLNELLEALKQKLK [Peptide 67] | 14% | – | 90% | –
PVLDLFRNLLEELLEALQKKLK [Peptide 66] | 15% | – | 82% | –
DWLKAFYDKVAEKLKEAF* (not fully specified (N-terminus, C-terminus); printed as DWLKAFYDKVAEKLKEAF*) [Peptide 240] | 10% | – | 68% | –
PAADAFREAANEAAEAAKQKAK [Peptide 105] | 1% | – | 28% | –
PVLELFENLLERLWDALQKKLK [Peptide 163] | 26% | – | 53% | –
PVLDLFRELLNEGLEALKQKLK [Peptide 8] | 83% | – | 90% | –
PVLDLFREKLNEXLEALKQKLK (PVLDLFREKLNE[Aib]LEALKQKLK; not fully specified (C-terminus)) [Peptide 46] | 23% | – | 86% | –
DWFKAFYDKVAEKFKEAF [Peptide 243] | 5% | – | 64% | –
PVLELFENLWERLLDALQKKLK [Peptide 149] | 63% | – | 54% | –
PVLDLFRELLNELLEALKQKLK [Peptide 4] | 93% | – | 95% | –

Substance | ACTIVITY (%) LCAT (LCAT) | He (%) free [1] | He (%) [1] | He (%) SUVs ([1]; SUVs)
EWLKAFYEKVLEKLKELF* (Ac-EWLKAFYEKVLEKLKELF-NH2) [Peptide 238, Ac-18AMOD-C(O)NH2 peptide (Epand et al., 1987), reference compound] | 19% | – | 72% | –
PVLDLFRELLNELLEALKQKLK^† [Peptide 30] | 38% | – | 90% | –
PVLELFRELLEELKQKLK* (not fully specified (N-terminus, C-terminus); printed as PVLELFRELLEELKQKLK*) [Peptide 194] | 88% | – | 93% | –
PVLDLFRELLNELLQKLK [Peptide 209] | 47% | – | 71% | –
PVLDLFNELLRELLEALQKKLK [Peptide 40] | 25% | – | 84% | –
PVLDLFRELLNELLEZLKQKLK (PVLDLFRELLNELLE[Nal]LKQKLK; not fully specified (C-terminus)) [Peptide 1] | 120% | – | 85% | –
PVLDLFRELLNLXLEALKQKLK (PVLDLFRELLNL[Aib]LEALKQKLK; not fully specified (C-terminus)) [Peptide 95] | 5% | – | sp | –
PVLELFENLLERLLDALQKKLK [Peptide 146] | 86% | – | 100% | –
P~LDLFRELLNELLEALKQKLK (PLDLFRELLNELLEALKQKLK) [Peptide 85] | 7% | – | 61% | –
PVLDEFREKLNEPLEALKQKLK [Peptide 113] | 0% | – | 22% | –
PVLDLFRELLNELLEALKQ~~~ [Peptide 60] | 16% | – | 83% | –
PVLDFFRELLNEXLEALKQKLK (PVLDFFRELLNE[Aib]LEALKQKLK; not fully specified (C-terminus)) [Peptide 25] | 51% | – | 82% | –
PVLDLFKELLNELLEALKQKLK [Peptide 7] | 83% | – | 89% | –
PVLELFENLLERLLDAWQKKLK [Peptide 164] | 24% | – | 66% | –
PVLDLFRELLNELLEAZKQKLK (PVLDLFRELLNELLEA[Nal]KQKLK; not fully specified (C-terminus)) [Peptide 10] | 79% | – | 87% | –
PVLDLFRELLEELLKALKKKLK [Peptide 39] | 25% | – | 69% | –
P~~~~~~~LLNELLEALKQKLK (PLLNELLEALKQKLK) [Peptide 104] | 1% | – | 49% | –
Ac-PVLDEFREKLNEELEALKQKLK-NH2 [Peptide 75, reference compound] | – | – | 28% | –
PVLDEFREKLNERLEALKQKLK [Peptide 109, [R^13]-Consensus 22-mer peptide (Anantharamaiah et al., 1990), reference compound] | 0% | – | 45% | –

Substance | ACTIVITY (%) LCAT (LCAT) | He (%) free [1] | He (%) [1] | He (%) SUVs ([1]; SUVs)
PVLDEFREKLNEALEALKQKLK [Peptide 94, [A^13]-Consensus 22-mer peptide (Anantharamaiah et al., 1990), reference compound] | 5% | – | 70% | –
PVLELFENLLERLLDWLQKKLK [Peptide 160] | 28% | – | 73% | –
PVLDEFRELLFEXLEALKQKLK (PVLDEFRELLFE[Aib]LEALKQKLK; not fully specified (C-terminus)) [Peptide 76] | 9% | – | 88% | –
PVLDLFRELLNELLEWLKQKLK [Peptide 3] | 98% | – | 95% | –
EWLEAFYKKVLEKLKELF* (Ac-EWLEAFYKKVLEKLKELF-NH2) [Peptide 239, Ac-18AM4-C(O)NH2 peptide (Brasseur, 1993), reference compound] | 11% | – | 49% | –
PVLDLFRELLELLKQKLK [Peptide 217] | 30% | – | 78% | –
KLKQKLAELLENLLERFLDLVP [Peptide 99] | 2% | – | 88% | –
PVLDLFRWLLNEXLEALKQKLK (PVLDLFRWLLNE[Aib]LEALKQKLK; not fully specified (C-terminus)) [Peptide 108] | 0% | – | 55% | –
klkqklaellenllerfldlvp (KLKQKLAELLENLLERFLDLVP; not fully specified; D-amino acids; D-Lys; D-Leu; D-Gln; D-Ala; D-Glu; D-Asn; D-Arg; D-Phe; D-Asp; D-Val; D-Pro) [Peptide 107] | 0% | – | sp | –
EWLEAFYKKVLEKLKELF [Peptide 246, 18AM4 peptide (Rosseneu et al., WO93/25581; Corijn et al., 1993), reference compound] | 4% | – | 44% | –
P~~~LFRELLNELLEALKQKLK (PLFRELLNELLEALKQKLK) [Peptide 55] | 19% | – | 72% | –
pvldlfrellneXlealkgklk ([dP][dV][dL][dD][dL][dF][dR][dE][dL][dL][dN][dE][Aib][dL][dE][dA][dL][dK][dQ][dK][dL][dK]) [Peptide 96] | 5% | – | 85% | –
PVLDLFRELLEELKQKLK* (not fully specified (N-terminus, C-terminus); printed as PVLDLFRELLEELKQKLK*) [Peptide 193] | 96% | – | 88% | –
PVLDLFRELWEELKQKLK* (not fully specified (N-terminus, C-terminus); printed as PVLDLFRELWEELKQKLK*) [Peptide 199] | 76% | – | 77% | –
PVLDLFRELLNEXLEALKQKLK (PVLDLFRELLNE[Aib]LEALKQKLK; not fully specified (C-terminus)) [Peptide 6] | 80% | – | 93% | –
PVLDLFRELLEELKQKLK [Peptide 210] | 46% | – | 63% | –
PVLDEFREKLNEXLEALKQKLK (PVLDEFREKLNE[Aib]LEALKQKLK; not fully specified (C-terminus)) [Peptide 45] | 24% | 24% | 84% | 25%
PVLDEFREKLNEELEXLKQKLK (PVLDEFREKLNEELE[Aib]LKQKLK; not fully specified (C-terminus)) [Peptide 120] | 0% | – | – | –
